Results as given in patent publication US10442868B2, “Treating hepatitis B virus infections by administering receptor associated protein (RAP)” (Rhode Island Hospital, A Lifespan-Partner, priority 2013, dated 2019).

Key:
[1] = system: HBV; test: HBV infection of differentiated HepaRG cells with RAP or GST-RAP, secreted HBsAg by ELISA; format: cell-based; settings: overnight with HBV inoculum and increasing concentrations, HBsAg measured 10 days later
Procedure: Differentiated HepaRG cells (4×10^4), which are susceptible to HBV infection (Gripon et al., Proc Natl Acad Sci USA 99:15655-60, 2002), were incubated overnight with HBV inoculum in the presence or absence of increasing concentrations of RAP or GST-RAP, and washed extensively to remove unbound HBV virions and HBsAg. Medium was changed every 2-3 days. HBsAg level in culture supernatant was measured 10 days later (at this point there was no more residual HBsAg from the inoculum, and signals detected reflect newly synthesized and secreted proteins). The level of HBsAg secreted into the culture supernatant was determined by an ELISA assay using a commercially available kit (e.g., Novus Biologicals, NEO BioLab, Cusabio Biotech Co., Ltd.). Briefly, culture medium was added to wells containing capture antibody (anti-HBsAg), followed by incubation at 37° C. for 30 min. After washing with provided washing buffer, conjugate (anti-HBsAg conjugated with HRP) was added followed by incubation at 37° C. for 30 min.

[2] = system: differentiated HepaRG cells; test: Killing of differentiated HepaRG cells by LRP-utilizing toxin, trypan blue staining; format: cell-based, human; settings: 500 ng/ml, 37° C. overnight, low dose
Procedure: Hepatocytes are polarized. LRP is distributed at the basolateral side rather than apical side of hepatocytes (Marzolo et al., Traffic 4:273-88, 2003) consistent with HBV infection from the bloodstream. It was recently reported that HBV preferentially infects hepatocytes near the edge of hepatocyte islands (Schulze et al., Hepatology 55:373-83, 2012). […] Differentiated HepaRG cells were untreated (left panel) or incubated with pseudomonas exotoxin A (500 ng/ml) at 37° C. overnight (right panel), and stained with 0.04% trypan blue to reveal dead (blue) cells under microscopy. The dead cells were mainly located at the periphery of hepatocyte islands, which are also most susceptible to HBV infection.

| Molecule | HBsAg secretion to culture supernatant (HBV infectivity) [1] | cell killing (trypan blue dead cells) [2] |
| --- | --- | --- |
| RAP: Receptor associated protein, chaperone binding LRP and other LDLR family members; universal inhibitor of the LDLR protein family (SEQ ID NO:6) (protein, human receptor associated protein (RAP)) MAPRRVRSFLRGLPALLLLLLFLGPWPAASHGGKYSREKNQPKPSPKRESGEEFRMEKLNQLWEKAQRLHLPPVRLAELHADLKIQERDELAWKKLKLDGLDEDGEKEARLIRNLNVILAKYGLDGKKDARQVTSNSLSGTQEDGLDDPRLEKLWHKAKTSGKFSGEELDKLWREFLHHKEKVHEYNVLLETLSRTEEIHENVISPSDLSDIKGSVLHSRHTELKEKLRSINQGLDRLRRVSHQGYSTEAEFEEPRVIDLWDLAQSANLTDKELEAFREELKHFEAKIEKHNHYQKQLEIAHEKLRHAESVGDGERVSRSREKHALLEGRTKELGYTVKKHLQDLSGRISRARHNEL | dose-dependent reduction of HBsAg secretion |  |
| GST-RAP: GST fusion form of RAP tested in HepaRG HBV infection (protein, left off: a dimerising Fc or GST, GST fusion form of RAP tested in HepaRG HBV infection) YSREKNQPKPSPKRESGEEFRMEKLNQLWEKAQRLHLPPVRLAELHADLKIQERDELAWKKLKLDGLDEDGEKEARLIRNLNVILAKYGLDGKKDARQVTSNSLSGTQEDGLDDPRLEKLWHKAKTSGKFSGEELDKLWREFLHHKEKVHEYNVLLETLSRTEEIHENVISPSDLSDIKGSVLHSRHTELKEKLRSINQGLDRLRRVSHQGYSTEAEFEEPRVIDLWDLAQSANLTDKELEAFREELKHFEAKIEKHNHYQKQLEIAHEKLRHAESVGDGERVSRSREKHALLEGRTKELGYTVKKHLQDLSGRISRARHNEL | dose-dependent reduction of HBsAg secretion |  |
| Pseudomonas exotoxin (protein) AEEAFDLWNECAKACVLDLKDGVRSSRMSVDPAIADTNGQGVLHYSMVLEGGNDALKLAIDNALSITSDGLTIRLEGGVEPNKPVRYSYTRQARGSWSLNWLVPIGHEKPSNIKVFIHELNAGNQLSHMSPIYTIEMGDELLAKLARDATFFVRAHESNEMQPTLAISHAGVSVVMAQAQPRREKRWSEWASGKVLCLLDPLDGVYNYLAQQRCNLDDTWEGKIYRVLAGNPAKHDLDIKPTVISHRLHFPEGGSLAALTAHQACHLPLETFTRHRQPRGWEQLEQCGYPVQRLVALYLAARLSWNQVDQVIRNALASPGSGGDLGEAIREQPEQARLALTLAAAESERFVRQGTGNDEAGAASADVVSLTCPVAAGECAGPADSGDALLERNYPTGAEFLGDGGDISFSTRGTQNWTVERLLQAHRQLEERGYVFVGYHGTFLEAAQSIVFGGVRARSQDLDAIWRGFYIAGDPALAYGYAQDQEPDARGRIRNGALLRVYVPRSSLPGFYRTGLTLAAPEAAGEVERLIGHPLPLRLDAITGPEEEGGRLETILGWPLAERTVVIPSAIPTDPRNVGGDLDPSSIPDKEQAISALPDYASQPGKPPREDLK |  | selectively killed cells in the periphery of hepatocyte islands |
